In PMC9813255, “PQBP5/NOL10 maintains and anchors the nucleolus under physiological and osmotic stress conditions” (Nature Communications, 2023):

Molecular target: T1, human nucleolin (His-tag fusion protein) (human, UniProt P19338 1-710)
T1 construct: nucleolin, human, amplified from HEK293 cDNA into pET-28a; the printed primers run from the start codon to the stop codon; this is read from the printed primers; source: E. coli Rosetta 2(DE3), purified (Ni-NTA agarose)
Assay: SPR; Biacore T100, 25 °C; one protein immobilised on a CM5 chip (200 RU), analytes at 0-50 nM, 180 s at 10 μl/min; 25 mM Tris-HCl, 500 mM NaCl, 10% glycerol, 1% Triton X-100, pH 8.0
Conditions: both partners purified

T1 sequence (P19338 whole entry, the tested form may be a part): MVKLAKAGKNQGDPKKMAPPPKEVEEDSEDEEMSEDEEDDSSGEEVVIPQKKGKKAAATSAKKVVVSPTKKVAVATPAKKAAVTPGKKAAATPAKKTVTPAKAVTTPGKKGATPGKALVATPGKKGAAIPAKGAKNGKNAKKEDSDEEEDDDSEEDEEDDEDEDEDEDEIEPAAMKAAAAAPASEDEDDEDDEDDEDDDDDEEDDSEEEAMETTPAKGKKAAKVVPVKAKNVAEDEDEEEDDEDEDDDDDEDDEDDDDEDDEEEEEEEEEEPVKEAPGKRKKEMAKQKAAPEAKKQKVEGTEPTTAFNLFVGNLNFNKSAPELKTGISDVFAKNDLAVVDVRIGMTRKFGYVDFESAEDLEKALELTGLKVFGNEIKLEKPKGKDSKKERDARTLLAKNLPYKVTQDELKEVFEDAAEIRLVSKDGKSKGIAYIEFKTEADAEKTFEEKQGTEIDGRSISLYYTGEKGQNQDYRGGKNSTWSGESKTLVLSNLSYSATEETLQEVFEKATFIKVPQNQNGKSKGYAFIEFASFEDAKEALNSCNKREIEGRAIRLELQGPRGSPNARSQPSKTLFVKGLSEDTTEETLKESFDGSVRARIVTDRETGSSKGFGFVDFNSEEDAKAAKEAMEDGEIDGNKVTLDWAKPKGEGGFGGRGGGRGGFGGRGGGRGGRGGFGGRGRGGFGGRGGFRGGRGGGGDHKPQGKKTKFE

binding result: binds
B1: human fibrillarin (His-tag fusion protein) (natural protein, UniProt P22087 1-321, looked up)
chain: MKPGFSPRGGGFGGRGGFGDRGGRGGRGGFGGGRGRGGGFRGRGRGGGGGGGGGGGGGRGGGGFHSGGNRGRGRGGKRGNQSGKNVMVEPHRHEGVFICRGKEDALVTKNLVPGESVYGEKRVSISEGDDKIEYRAWNPFRSKLAAAILGGVDQIHIKPGAKVLYLGAASGTTVSHVSDIVGPDGLVYAVEFSHRSGRDLINLAKKRTNIIPVIEDARHPHKYRMLIAMVDVIFADVAQPDQTRIVALNAHTFLRNGGHFVISIKANCIDSTASAEAVFASEVKKMQQENMKPQEQLTLEPYERDHAVVVGVYRPPPKVKN
notes: fibrillarin, human, amplified from HEK293 cDNA into pET-28a; the printed primers run from the start codon to the stop codon; this is read from the printed primers; source: E. coli Rosetta 2(DE3), purified (Ni-NTA agarose)
